In general, stoichiometry N refers to the number of molecules, sites or subunits per partner or assembly.

Data set [1] addresses Cp149.Y132A (Hepatitis B virus) (UniProt P03147). The data set can be described thus: AUC.
Data set [2] addresses Cp149.G123A.T114A (Hepatitis B virus) (UniProt P03147). The data set can be described thus: AUC.
For data set [3], the target named is Cp149.S141A (Hepatitis B virus) (UniProt P03147). The data set can be described thus: AUC.
Data set [4] deals with Cp(−10)149.G123A (Hepatitis B virus) (UniProt P03147). The data set can be described thus: AUC.
Data set [5] deals with Cp149.T114A (Hepatitis B virus) (UniProt P03147). The data set is described as follows: AUC.
Data set [6] addresses Cp149.G123A (Hepatitis B virus) (UniProt P03147). The data set is described as follows: SEC.
The target is the same in data set [7]. The data set can be described thus: AUC.
Data set [8] has as its target Cp149.R127A (Hepatitis B virus) (UniProt P03147). The data set can be described thus: AUC.
Data set [9] concerns the target Cp(−10)149d.C(−7)A.C61.C48A.C107A (Hepatitis B virus) (UniProt P03147). The data set is described as follows: cross-linking.
For data set [10] the target is unchanged. The data set can be described thus: AUC.
Data set [11] deals with Cp(−10)149.5A (Hepatitis B virus) (UniProt P03147). The data set can be described thus: cross-linking.
The target in data set [12] is Cp149.R127A.G123A (Hepatitis B virus) (UniProt P03147). The data set can be described thus: AUC.
In data set [13] the target is Cp149.Y132A.G123A.R127A (Hepatitis B virus) (UniProt P03147). The data set can be described thus: AUC.
The data set “cross-linking” concerns the molecule itself. The data set is described as follows: cross-linking.
The data set “AUC” concerns the molecule itself. The data set can be described thus: AUC.

In [1], “Cp149.Y132A (from UniProt P03147 1-149) (domain or fragment)” displayed a stoichiometry N of 2.
In turn, “Cp149.G123A.T114A (from UniProt P03147 1-149) (domain or fragment)” showed a stoichiometry N in data set [2] of 2.
The molecule “Cp149.S141A (from UniProt P03147 1-149) (domain or fragment)” showed a stoichiometry N in data set [3] of 2.
The molecule “Cp(−10)149.G123A (from UniProt P03147 1-149) (natural protein)” came in with a stoichiometry N in data set [4] of 2.
In the case of “Cp149.T114A (from UniProt P03147 1-149) (domain or fragment)”, the stoichiometry N in data set [5] turned out to be 2.
Regarding “Cp149.G123A (from UniProt P03147 1-149) (domain or fragment)”, the stoichiometry N in data set [6] and in data set [7] was 2 in each case.
In the case of “Cp149.R127A (from UniProt P03147 1-149) (domain or fragment)”, the stoichiometry N in data set [8] is 2.
As for “Cp(−10)149d.C(−7)A.C61.C48A.C107A (from UniProt P03147 1-149) (natural protein)”, the stoichiometry N in data set [9] and in [10] was 2 in each case.
In the case of “Cp(−10)149.5A (from UniProt P03147 1-149) (natural protein)”, in data set [11], the stoichiometry N was found to be 2.
The molecule “Cp149.R127A.G123A (from UniProt P03147 1-149) (domain or fragment)” showed a stoichiometry N in data set [12] of 2.
For “Cp149.Y132A.G123A.R127A (from UniProt P03147 1-149) (domain or fragment)”, the stoichiometry N in [13] stood at 2.

B1: Cp149.4A (domain or fragment)
chain: MDIDPYKEFGATVELLSFLPSDFFPSVRDLLDTAAALYRDALESPEHASPHHTALRQAILCWGDLMTLATWVGTNLEDPASRDLVVSYVNTNVGLKFRQLLWFHISALTFGRETVLEYLVSFAVWIATPPAYRPPNAPILSTLPETTVV
For the molecule B1, the “stoichiometry N” value in “cross-linking” is 2.

B2: Cp143 (domain or fragment)
chain: MDIDPYKEFGATVELLSFLPSDFFPSVRDLLDTAAALYRDALESPEHCSPHHTALRQAILCWGDLMTLATWVGTNLEDPASRDLVVSYVNTNVGLKFRQLLWFHISCLTFGRETVLEYLVSFGVWIRTPPAYRPPNAPILSTL
For B2, in “AUC”, the “stoichiometry N” value stood at 2.

B3: Cp141 (domain or fragment)
chain: MDIDPYKEFGATVELLSFLPSDFFPSVRDLLDTAAALYRDALESPEHCSPHHTALRQAILCWGDLMTLATWVGTNLEDPASRDLVVSYVNTNVGLKFRQLLWFHISCLTFGRETVLEYLVSFGVWIRTPPAYRPPNAPILS
Take B3: the “stoichiometry N” value in “AUC” was determined as 2.

The values above are taken from PMC3095675 (Journal of molecular biology, 2011).
